Data from US20050058640A1 (BAXTER INTERNATIONAL, published 2005).

Legend:
[1] = molecular target: factor VIII / factor VIIIa (recombinant human coagulation factor VIII, thrombin-activated) (UniProt P00451)
human factor IXa [2] = molecular target: T1, human factor IXa (human, UniProt P00740 47-191; P00740 227-461); experiment: SPR (BIACORE), antibody captured by anti-mouse Fc on CM5 chip, FIXa in flow, steady state analysis
T1 construct: also called FIXa; F IXa
Excerpt: Polyclonal anti-mouse Fc antibodies were immobilized on a CM5 sensor chip and saturated with the respective monoclonal antibody. As a reference, a non-specific mouse IgG was used.

human factor IXa [3] = molecular target: T1, human factor IXa; experiment: cell-based or functional assay
bovine FIX = molecular target: T2, bovine FIX (bovine, UniProt P00741 47-462); experiment: ELISA and Western blot
T2 construct: also called bovine factor IX
T2 sequence (P00741 47-462 limits assumed): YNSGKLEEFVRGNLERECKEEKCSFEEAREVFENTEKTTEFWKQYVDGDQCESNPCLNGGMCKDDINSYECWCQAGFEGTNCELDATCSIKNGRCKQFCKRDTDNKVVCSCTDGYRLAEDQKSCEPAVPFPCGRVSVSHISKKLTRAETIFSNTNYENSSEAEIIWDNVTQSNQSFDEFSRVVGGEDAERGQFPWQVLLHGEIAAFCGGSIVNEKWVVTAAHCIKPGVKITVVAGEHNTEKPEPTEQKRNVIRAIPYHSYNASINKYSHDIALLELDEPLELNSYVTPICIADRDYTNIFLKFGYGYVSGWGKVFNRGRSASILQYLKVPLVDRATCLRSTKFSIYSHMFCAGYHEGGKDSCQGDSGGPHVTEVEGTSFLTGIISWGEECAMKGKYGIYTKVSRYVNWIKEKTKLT

murine FIX = molecular target: T3, murine FIX (murine, UniProt P16294 47-471); experiment: ELISA and Western blot
T3 construct: also called murine factor IX
T3 sequence (P16294 47-471 limits assumed): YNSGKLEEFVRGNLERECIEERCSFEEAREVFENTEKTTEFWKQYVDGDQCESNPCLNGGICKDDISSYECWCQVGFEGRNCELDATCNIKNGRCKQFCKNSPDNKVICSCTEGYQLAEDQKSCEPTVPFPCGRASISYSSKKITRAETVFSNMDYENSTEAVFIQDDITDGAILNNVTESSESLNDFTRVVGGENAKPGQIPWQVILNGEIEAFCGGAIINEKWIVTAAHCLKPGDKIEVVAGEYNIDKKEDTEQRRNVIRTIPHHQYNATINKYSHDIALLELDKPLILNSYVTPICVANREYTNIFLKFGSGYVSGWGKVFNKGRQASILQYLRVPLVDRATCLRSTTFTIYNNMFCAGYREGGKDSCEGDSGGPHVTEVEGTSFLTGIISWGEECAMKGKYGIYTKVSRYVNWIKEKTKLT

human factor IXa [4] = molecular target: T1, human factor IXa; experiment: cell-based or functional assay; remark: listed apart in the source

T1 sequence (P00740 47-191 limits assumed, chain 1 of 2): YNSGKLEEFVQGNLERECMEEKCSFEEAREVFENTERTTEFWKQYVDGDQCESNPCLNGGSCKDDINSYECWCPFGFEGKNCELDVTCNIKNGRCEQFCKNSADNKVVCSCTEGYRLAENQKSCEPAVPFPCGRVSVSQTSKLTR
T1 sequence (P00740 227-461 limits assumed, chain 2 of 2): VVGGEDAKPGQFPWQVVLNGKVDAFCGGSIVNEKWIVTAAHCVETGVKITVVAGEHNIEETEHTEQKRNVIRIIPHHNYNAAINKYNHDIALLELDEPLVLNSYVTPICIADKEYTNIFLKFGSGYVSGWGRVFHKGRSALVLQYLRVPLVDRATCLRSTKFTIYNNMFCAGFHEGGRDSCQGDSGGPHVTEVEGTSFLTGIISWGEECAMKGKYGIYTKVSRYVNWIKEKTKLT
Chain of factor VIII / factor VIIIa (recombinant human coagulation factor VIII, thrombin-activated) (P00451 20-2351): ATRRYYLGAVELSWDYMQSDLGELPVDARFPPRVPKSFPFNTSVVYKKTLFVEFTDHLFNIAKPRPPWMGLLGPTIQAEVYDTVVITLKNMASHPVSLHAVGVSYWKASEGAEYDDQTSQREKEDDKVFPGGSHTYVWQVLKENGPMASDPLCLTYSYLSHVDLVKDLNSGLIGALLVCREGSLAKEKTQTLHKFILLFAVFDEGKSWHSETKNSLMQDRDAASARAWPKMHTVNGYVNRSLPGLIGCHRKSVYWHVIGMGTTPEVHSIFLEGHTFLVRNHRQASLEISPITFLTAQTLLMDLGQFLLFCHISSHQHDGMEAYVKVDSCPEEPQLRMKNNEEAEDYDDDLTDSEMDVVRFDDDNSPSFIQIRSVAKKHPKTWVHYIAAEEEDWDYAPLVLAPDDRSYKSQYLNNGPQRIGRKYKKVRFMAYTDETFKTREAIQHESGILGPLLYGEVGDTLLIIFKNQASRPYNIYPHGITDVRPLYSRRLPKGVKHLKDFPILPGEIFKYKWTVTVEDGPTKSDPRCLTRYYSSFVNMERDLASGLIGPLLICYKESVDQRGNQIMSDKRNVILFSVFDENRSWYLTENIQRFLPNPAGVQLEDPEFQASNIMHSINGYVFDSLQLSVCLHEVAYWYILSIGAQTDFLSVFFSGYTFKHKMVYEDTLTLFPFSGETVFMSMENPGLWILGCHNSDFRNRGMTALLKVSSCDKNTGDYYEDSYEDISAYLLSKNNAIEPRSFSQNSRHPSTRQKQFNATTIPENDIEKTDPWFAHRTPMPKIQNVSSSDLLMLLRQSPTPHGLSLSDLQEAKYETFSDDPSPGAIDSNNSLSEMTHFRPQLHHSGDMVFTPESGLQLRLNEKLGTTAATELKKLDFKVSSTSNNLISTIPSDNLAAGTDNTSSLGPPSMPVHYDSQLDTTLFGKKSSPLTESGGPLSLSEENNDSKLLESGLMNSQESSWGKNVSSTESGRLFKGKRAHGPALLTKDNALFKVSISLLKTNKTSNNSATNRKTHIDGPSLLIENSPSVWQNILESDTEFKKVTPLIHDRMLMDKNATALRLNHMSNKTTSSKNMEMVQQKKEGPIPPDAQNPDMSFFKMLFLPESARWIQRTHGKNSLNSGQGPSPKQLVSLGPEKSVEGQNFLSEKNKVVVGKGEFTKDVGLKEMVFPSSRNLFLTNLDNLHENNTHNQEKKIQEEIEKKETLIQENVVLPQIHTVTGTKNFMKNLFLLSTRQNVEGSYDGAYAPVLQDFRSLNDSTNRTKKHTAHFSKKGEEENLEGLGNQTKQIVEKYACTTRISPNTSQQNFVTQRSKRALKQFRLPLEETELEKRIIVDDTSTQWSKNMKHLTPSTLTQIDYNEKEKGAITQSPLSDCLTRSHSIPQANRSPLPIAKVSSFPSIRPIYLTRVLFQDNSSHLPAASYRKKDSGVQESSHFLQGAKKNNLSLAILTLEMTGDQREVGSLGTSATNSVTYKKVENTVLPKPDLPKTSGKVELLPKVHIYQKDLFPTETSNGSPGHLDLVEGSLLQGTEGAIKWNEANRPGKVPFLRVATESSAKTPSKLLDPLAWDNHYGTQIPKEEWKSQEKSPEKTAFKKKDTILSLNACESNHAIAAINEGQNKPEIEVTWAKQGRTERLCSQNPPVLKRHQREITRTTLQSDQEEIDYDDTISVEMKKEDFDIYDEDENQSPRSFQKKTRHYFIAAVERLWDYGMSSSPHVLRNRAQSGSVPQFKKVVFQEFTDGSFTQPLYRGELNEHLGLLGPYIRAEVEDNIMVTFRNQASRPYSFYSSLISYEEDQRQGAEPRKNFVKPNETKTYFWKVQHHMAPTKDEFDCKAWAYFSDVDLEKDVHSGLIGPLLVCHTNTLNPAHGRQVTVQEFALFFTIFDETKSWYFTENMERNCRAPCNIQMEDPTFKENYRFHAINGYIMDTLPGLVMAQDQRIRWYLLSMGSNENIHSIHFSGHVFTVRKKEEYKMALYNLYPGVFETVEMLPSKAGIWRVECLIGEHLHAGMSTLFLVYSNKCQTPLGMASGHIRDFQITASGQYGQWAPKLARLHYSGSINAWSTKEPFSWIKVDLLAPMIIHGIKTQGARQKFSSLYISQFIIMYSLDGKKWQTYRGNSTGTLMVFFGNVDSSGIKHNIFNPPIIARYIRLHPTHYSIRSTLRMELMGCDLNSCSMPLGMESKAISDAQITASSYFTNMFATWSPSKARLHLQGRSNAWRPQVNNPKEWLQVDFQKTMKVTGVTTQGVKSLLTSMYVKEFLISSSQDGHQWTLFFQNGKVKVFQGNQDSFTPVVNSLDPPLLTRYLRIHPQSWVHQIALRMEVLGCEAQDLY

Row | Molecule | decrease of Km of FIXa [1] | Kd (human factor IXa [2]) [nM] | enhancement of the rate of FXa formation (human factor IXa [3]) [fold] | increase of kcat of FX activation by FIXa (human factor IXa [3]) [fold] | binding result (bovine FIX) | binding result (murine FIX) | KM (human factor IXa [4]) [µM] | kcat (human factor IXa [4]) [s⁻¹] | kcat/KM (human factor IXa [4]) [M⁻¹ s⁻¹]
1 | human factor IXa | approximately 2.5-fold |  |  |  |  |  |  |  | 
2 | antibody 224F3 (antibody, V domains shown) VH: QVQMQQSGAELVKPGASVKLSCKASGYTFTSQDINWVRQRPEQGLEWIGWIFPGDGSTKYNEKLKGKATLTTDKSSSTAFMQLSRLTSEDSAVYFCARSAYYRYDGSYYYAMDYWGQGTSVTVSS VL: QIVLTQSPAIMSASLGEEITLTCSASSSVSYMLWYQQKSGTSPKLLIYTTSNLASGVPSRFSGTGSGTFYSLTISSVEAEDAADYYCHQWSSYPRTFGGGTKLEIKR |  | 0.477 | 10 | ~10 | binds | no binding | 0.048 | 0.000883 | 18300
